Measurements reported in patent US12486514B2, “Method to specifically stimulate survival and expansion of genetically-modified immune cells” (National University of Singapore, priority 2018, dated 2025).

How the values were obtained:
STAT5 Y647 = test: Epo signaling: STAT5 phosphorylation by flow cytometry in transduced T cells; assay type: cell-based, human; conditions: for Epo signaling (pSTAT5) after JAK inhibitor: concentration that abrogated IL-2 signal
Procedure: To detect Epo signaling, cells were incubated in cytokine-free media for 2 hours before stimulated with Epo (0.01-10 IU/mL) at 37° C. for 15 minutes to 24 hours. In some experiments, cells were treated with 0.1-10 μM of ruxolitinib (Selleckchem) or 0.5-5 nM tofacitinib (Santa Cruz Biotechnology, Santa Cruz, CA) for 1 hour prior to Epo stimulation. […] In some experiments, the effects of human Epo were compared to those of murine Epo (Biolegend, San Diego, CA).

CD19+ Nalm6 ALL cells = test: Xenograft: Nalm6-luciferase cells followed 2 days later by EpoRm-CAR T cells, with or without Epo; assay type: in vivo, NSG mice; conditions: 100 IU Epo i.p. 3 times a week for 2 weeks
Procedure: In another model to test anti-leukemic activity of T cells, Nalm6 cells transduced with luciferase were injected i.v. (5×10^5 cells per mouse), followed 2 days later by T cells expressing EpoRm-CAR (2×10^7 cells per mouse, i.v.), while control mice received no T cells; some mice received Epo (100 IU) 3 times per week i.p. Tumor cell load was determined with the Xenogen IVIS-200 System (Perkin Elmer, Waltham, MA) after injecting aqueous D-luciferin potassium salt (150 μg/g body weight; Perkin Elmer) i.p. Luminescence was analyzed with Living Image 3.0 software. Mice were euthanized when the luminescence reached 1×10^10 photons per second, or earlier if there were physical signs warranting euthanasia.

Jurkat cells = test: Jurkat cell growth curves; assay type: cell-based, human
T lymphocytes [1] = test: T cell survival/recovery in culture with or without Epo and IL-2; assay type: cell-based, human
Procedure: To assess cell survival, T cells were cultured in absence of exogenous cytokines, with or without Epo (4-10 IU/mL) in a flat bottom 96-well or 24-well plate (Cellstar). For cell proliferation, T cells were co-cultured with target cells (OP-1 cells) at 1:1 effector-to-target (E:T) ratio in a flat bottom 96-well plate; Epo (10 IU/mL) was added every two days. Target cells, irradiated (100 Gy) or treated with Streck cell preservative (Streck Laboratories, Omaha, NE) to inhibit growth, were added at the beginning of the cultures, and every 7 days thereafter. In some experiments, low dose (10 IU/mL) or high dose (100 IU/mL) IL-2 was added to the culture as well. The number of GFP+ T cells was measured by flow cytometry.

Epo = test: Binding of biotinylated Epo to transduced Jurkat cells
Text: Biotinylated Epo was visualized with streptavidin-PE (Jackson ImmunoResearch).

T lymphocytes [2] = test: Cell cycle analysis (EdU DNA synthesis) after Epo stimulation; assay type: cell-based, human; conditions: exposure to Epo for 24 hours
Procedure: To determine the effect of Epo on cell cycle, cells were cultured in cytokine-free media for 3 days followed by stimulation with 10 IU/mL of Epo for 1 day. DNA synthesis was measured by Click-iT EdU AF647 Flow Cytometry Assay Kit (Thermo Fisher Scientific), and DNA content was measured with FxCycle Violet Stain (Thermo Fisher Scientific).

[3] = EpoRm-CAR T cells, Epo 10 IU/mL

Molecule: Epo: recombinant human Epo (Thermo Fisher Scientific), glycoprotein cytokine
- pSTAT5 levels induced (STAT5 Y647; EpoRm-CAR T cells, 1 IU/mL of Epo vs 50 IU/mL IL-2): significantly higher
- effect of Epo injection on anti-leukemic activity (CD19+ Nalm6 ALL cells): did not affect the anti-leukemic activity

Molecule: N#CC[C@H](C1CCCC1)n1cc(-c2ncnc3[nH]ccc23)cn1 [ruxolitinib, reference compound]
- Epo signaling (pSTAT5) after JAK inhibitor (STAT5 Y647; [3]): no effect

Molecule: C[C@@H]1CCN(C(=O)CC#N)C[C@@H]1N(C)c1ncnc2[nH]ccc12 [tofacitinib, reference compound]
- Epo signaling (pSTAT5) after JAK inhibitor (STAT5 Y647; [3]): no effect
- STAT5 Y647 phosphorylation caused by IL-2 after JAK inhibitor (STAT5 Y647; EpoRm-CAR T cells, IL-2 100 IU/mL): completely abrogated

B1: EpoR: wild-type human erythropoietin receptor (SEQ ID NO: 2) expressed in T cells by MSCV retroviral transduction (protein)
chain: MDHLGASLWPQVGSLCLLLAGAAWAPPPNLPDPKFESKAALLAARGPEELLCFTERLEDLVCFWEEAASAGVGPGNYSFSYQLEDEPWKLCRLHQAPTARGAVRFWCSLPTADTSSFVPLELRVTAASGAPRYHRVIHINEVVLLDAPVGLVARLADESGHVVLRWLPPPETPMTSHIRYEVDVSAGNGAGSVQRVEILEGRTECVLSNLRGRTRYTFAVRARMAEPSFGGFWSAWSEPVSLLTPSDLDPLILTLSLILVVILVLLTVLALLSHRRALKQKIWPGIPSPESEFEGLFTTHKGNFQLWLYQNDGCLWWSPCTPFTEDPPASLEVLSERCWGTMQAVEPGTDDEGPLLEPVGSEHAQDTYLVLDKWLLPRNPPSEDLPGPGGSVDIVAMDEGSEASSCSSALASKPSPEGASAASFEYTILDPSSQLLRPWTLCPELPPTPPHLKYLYLVVSDSGISTDYSSGDSQGAQGGLSDGPYSNPYENSLIPAAEPLPPSYVACS
- long-term cell growth of Jurkat cells (Jurkat cells): does not adversely affect
- survival in culture (T lymphocytes [1]; Epo 4 IU/mL, absence of exogenous IL-2): supported their survival in culture
- Epo binding (Epo): could bind Epo

B2: EpoRm: truncated mutant Epo receptor, codon 439 TGG (Trp) changed to TAG (stop), SEQ ID NO: 6, expressed in T cells (protein)
chain: MDHLGASLWPQVGSLCLLLAGAAWAPPPNLPDPKFESKAALLAARGPEELLCFTERLEDLVCFWEEAASAGVGPGNYSFSYQLEDEPWKLCRLHQAPTARGAVRFWCSLPTADTSSFVPLELRVTAASGAPRYHRVIHINEVVLLDAPVGLVARLADESGHVVLRWLPPPETPMTSHIRYEVDVSAGNGAGSVQRVEILEGRTECVLSNLRGRTRYTFAVRARMAEPSFGGFWSAWSEPVSLLTPSDLDPLILTLSLILVVILVLLTVLALLSHRRALKQKIWPGIPSPESEFEGLFTTHKGNFQLWLYQNDGCLWWSPCTPFTEDPPASLEVLSERCWGTMQAVEPGTDDEGPLLEPVGSEHAQDTYLVLDKWLLPRNPPSEDLPGPGGSVDIVAMDEGSEASSCSSALASKPSPEGASAASFEYTILDPSSQLLRP
- long-term cell growth of Jurkat cells (Jurkat cells): does not adversely affect
- recovery of T cells (T lymphocytes [1]; 7 days, Epo 10 IU/mL added to IL-2 100 IU/mL vs IL-2, 4 donors): significantly higher
- expansion of T cells (T lymphocytes [1]; 14 days, IL-2 100 IU/mL with Epo 10 IU/mL): performed better than EpoR cells
- cell numbers in culture (T lymphocytes [1]; Epo added, absence of IL-2): yielding higher cell numbers
- DNA synthesis elicited by Epo (T lymphocytes [2]): stimulation was higher
- functionality of EpoRm (pSTAT5) when expressed with CAR (STAT5 Y647; Epo 10 IU/mL, 15 minutes): maintained
- durability of STAT5 phosphorylation (STAT5 Y647; Epo 10 IU/mL, time course): more durable
